Article PMC4705688

Target: His-Cmr (Mycobacterium tuberculosis H37Rv, UniProt P9WMH5 1-244)
Test: EMSA

Chain of His-Cmr (P9WMH5 whole entry): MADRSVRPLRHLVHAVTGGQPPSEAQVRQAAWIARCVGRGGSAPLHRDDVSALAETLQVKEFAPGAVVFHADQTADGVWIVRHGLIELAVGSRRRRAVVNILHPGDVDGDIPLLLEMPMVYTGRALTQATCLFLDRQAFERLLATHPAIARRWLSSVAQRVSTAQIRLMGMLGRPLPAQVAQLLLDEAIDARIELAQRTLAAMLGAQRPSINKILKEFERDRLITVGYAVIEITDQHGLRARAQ

B1: 1C1 40 bp overlap (dsDNA)
DNA 1: GCGTGGTTCAGCTTGTCACCGGTGACACTGTGTTGGCTTC
DNA 2: GAAGCCAACACAGTGTCACCGGTGACAAGCTGAACCACGC
binding result: binds
